What all share (format): cell-based
The subject of one data set is EGFP expression. The data set is described as follows: GFP fluorescence of HEK 293 cells transfected with pEGFP riboswitch constructs, treated with guanine. The note with it: 500 μM guanine vs NaOH solvent control. The protocol:
(§1) Transfection and aptamer ligand treatment: 3.5×10^4 HEK 293 cells were plated in a 96-well flat bottom plate the day before transfection. Plasmid DNA (500 ng) was added to a tube or a 96-well U-bottom plate. Separately, TransIT-293 reagent (Minis; 1.4 μl) was added to 50 μl opti-mem I media (Life Technologies), and allowed to sit for 5 minutes at room temperature (“RT”). Then, 50 μl of this diluted transfection reagent was added to the DNA, mixed, and incubated at RT for 20 min. Finally, 7 μl of this solution was added to a well of cells in a 96-well plate. Four hours after transfection, the media was aspirated, and new media was added with (i) DMSO (0.5%) or 500 μM guanosine; or (ii) NaOH (2 mM) as solvent control or 500 μM guanine. The induction fold was expressed as the quotient of luciferase activity obtained in the presence of aptamer ligand divided by the value obtained in the absence of the aptamer ligand.
Transfection and measurement of GFP fluorescence: 3.5×10^4 HEK 293 cells were plated in 96-well flat bottom plate the day before transfection. […] GFP fluorescence intensity was measured by Tecan plate reader, using Excitation wavelength at 484 nm, Emission wavelength at 510 nm and Excitation bandwidth at 5 nm. The GFP fluorescence intensity was expressed as the value generated by GFP constructs subtracted by the value generated by cells without transfection.

Data set [1] relates to luciferase expression. The data set is described as follows: Firefly luciferase assay of HEK 293 cells transfected with riboswitch constructs, treated with guanosine or guanine. The note with it: absence of guanine treatment. The protocol: as §1
(§2) Firefly luciferase assay of cultured cells: Twenty-four hours after media change, plates were removed from the incubator, and equilibrated to RT for several minutes on a lab bench, then aspirated. Glo-lysis buffer (Promega, […]) was added, and the plates allowed to remain at RT for at least 5 minutes. Then, the well contents were mixed by 50 μL trituration, and 20 μL of each sample was mixed with 20 μL of bright-glo reagent (Promega) that had been diluted to 10% in glo-lysis buffer. 96 wells were spaced on an opaque white 384-well plate. Following a 5-min incubation at RT, luminescence was measured using Tecan machine with 500 mSec read time. The luciferase activity was expressed as mean relative light unit (RLU)±S.D.

For data set [2], the system named is luciferase expression. Put plainly: Firefly luciferase assay of HEK 293 cells transfected with adenine aptamer construct, treated with adenine. The procedure: as §1, §2
Four hours after transfection, the media was aspirated, and new media with NaOH (1 mM) or 1 mM adenine (Calbiochem) was added. The induction fold was expressed as the quotient of luciferase activity obtained in the presence of aptamer ligand divided by the value obtained in the absence of the aptamer ligand.

B1: ATA_Gua_4: SEQ ID NO: 4; xpt-guanine aptamer linked to 14 bp stem-loop embedding AATAAA; also used in pEGFP vector (nucleic acid)
DNA: AAGGCCAAGAAGGGCGGAAAGATCGCCGTGTAAGCCATACCACATTTGTAGAGGTTTTACTTGCTTTAAAAAACCTCCCACACCTCCCCCTGAACCTGAAACATAAAATGAATGCAATTGTTGTTGTTAACTTGTTTATTGCAGCTTATAATGGTTACAAATAAAGCAATAGCATCACAAATTTTAAAGCAATAATCGCGTGGATATGGCACGCAAGTTTCTACCGGGCACCGTAAATGTCCGACTTGCTTTATTTGTGCGAAAGCACAAATAAAGCATTTTTTTCACTGCATTCTAGTTGTGGTTTGTCCAAACTCATCAATGTATCTTAACGCGT
Turning to B1, the “fold increase in GFP expression on guanine treatment” value in the data set with EGFP expression is recorded as 1.6 fold. Further, the “basal level luciferase expression, % of the pFLuc control vector” value in the data set with luciferase expression [1] worked out at 16%.

B2: ATA_Ydhl: SEQ ID NO: 17; adenine aptamer ydhl-A linked to 9 bp TTCG stem-loop embedding AATAAA, P1 stem 10 bp (nucleic acid)
DNA: AAGGCCAAGAAGGGCGGAAAGATCGCCGTGTAAGCCATACCACATTTGTAGAGGTTTTACTTGCTTTAAAAAACCTCCCACACCTCCCCCTGAACCTGAAACATAAAATGAATGCAATTGTTGTTGTTAACTTGTTTATTGCAGCTTATAATGGTTACAAATAAAGCAATAGCATCACAAATTTCAATAAAGGTATAACCTCAATAATATGGTTTGAGGGTGTCTACCAGGAACCGTAAAATCCTGATTACCTTTATTTCTTCGGAAATAAAGCATTTTTTTCACTGCATTCTAGTTGTGGTTTGTCCAAACTCATCAATGTATCTTAACGCGT
Take B2: the “luciferase expression in the presence of adenine, % of the control pFLuc construct in the presence of adenine” value with luciferase expression [2] (1 mM adenine) was “approximately 82%”. The “fold increase in luciferase expression on adenine treatment” value with luciferase expression [2] (1 mM adenine vs NaOH solvent control) stood at 4.0 fold. For the same molecule, the “luciferase level in the absence of adenine, % of the control pFLuc construct” value in the data set with luciferase expression [2] (absence of adenine treatment) is on record as “approximately 52%”.

B3: ATA_Gua_2: SEQ ID NO: 2; xpt-guanine aptamer linked to 10 bp stem-loop embedding AATAAA; also used in pEGFP vector (nucleic acid)
DNA: AAGGCCAAGAAGGGCGGAAAGATCGCCGTGTAAGCCATACCACATTTGTAGAGGTTTTACTTGCTTTAAAAAACCTCCCACACCTCCCCCTGAACCTGAAACATAAAATGAATGCAATTGTTGTTGTTAACTTGTTTATTGCAGCTTATAATGGTTACAAATAAAGCAATAGCATCACAAATTTCACATAAAGCATAATCGCGTGGATATGGCACGCAAGTTTCTACCGGGCACCGTAAATGTCCGACTGCTTTATTTCGAAAGAAATAAAGCATTTTTTTCACTGCATTCTAGTTGTGGTTTGTCCAAACTCATCAATGTATCTTAACGCGT
With B3, the “fold increase in GFP expression on guanine treatment” value with EGFP expression was determined as 1.5 fold.

The values are drawn from patent US20200010836A1, “Regulation of Gene Expression by Aptamer-Mediated Accessibility of Polyadenylation Signals” (MEIRAGTX, UK II Limited, priority 2017, published 2020).
